Measurements reported in US20100136009A1 (DIADEXUS, published 2010).
Where a chain is given by its changes, count along the chain named. Blank lines part the entries; values can stand above or below the molecule they belong to.

Tests used:
[1] = target: transferrin receptor (TfnR, CD71) on cells (UniProt P02786); test: cell-based or functional assay
[2] = target: T1, recombinant Ovr110-hFc encoded by Ovr110 Construct 2 (human); test: competition ELISA; row = unlabeled blocking MAb; competitor = biotinylated detecting MAb C6.3
T1 construct: Captured on plates by goat anti-human IgG Fc; also called Ovr110-hFc (with TM)
T1 chain: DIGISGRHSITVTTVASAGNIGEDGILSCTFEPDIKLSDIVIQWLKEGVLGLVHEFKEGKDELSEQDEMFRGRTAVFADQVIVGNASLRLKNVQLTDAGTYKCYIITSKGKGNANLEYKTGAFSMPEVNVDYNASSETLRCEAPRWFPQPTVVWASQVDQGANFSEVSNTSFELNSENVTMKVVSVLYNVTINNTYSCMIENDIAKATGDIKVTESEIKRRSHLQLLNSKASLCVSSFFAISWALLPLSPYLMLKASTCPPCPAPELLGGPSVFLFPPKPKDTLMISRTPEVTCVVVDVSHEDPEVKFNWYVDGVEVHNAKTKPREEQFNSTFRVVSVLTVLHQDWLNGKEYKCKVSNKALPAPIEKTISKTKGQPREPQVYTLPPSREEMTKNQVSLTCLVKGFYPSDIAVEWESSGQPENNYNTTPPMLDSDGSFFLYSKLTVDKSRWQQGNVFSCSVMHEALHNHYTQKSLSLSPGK

[3] = target: T1, recombinant Ovr110-hFc encoded by …; test: competition ELISA; row = unlabeled blocking MAb; competitor = biotinylated detecting MAb Q15.2
[4] = target: T1, recombinant Ovr110-hFc encoded by …; test: competition ELISA; row = unlabeled blocking MAb; competitor = biotinylated detecting MAb A87.1
[5] = target: T2, Ovr110 (amino acids 1-282; Ovr110 Construct 1 without the 6-His tag) expressed on transiently transfected … (human, UniProt Q7Z7D3 25-282); test: flow cytometry; hybridoma supernatant; Ovr110-transfected 293F cells
T2 construct: signal peptide not removed here
T2 sequence: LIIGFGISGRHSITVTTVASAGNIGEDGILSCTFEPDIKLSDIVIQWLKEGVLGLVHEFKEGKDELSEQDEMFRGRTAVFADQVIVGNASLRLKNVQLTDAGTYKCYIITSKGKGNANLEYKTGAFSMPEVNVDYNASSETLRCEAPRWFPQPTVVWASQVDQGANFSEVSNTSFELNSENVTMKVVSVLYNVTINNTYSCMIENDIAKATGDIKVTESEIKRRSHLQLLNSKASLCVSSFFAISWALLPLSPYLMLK

[6] = target: T3, native Ovr110 protein on tumor cells (ZR-75-1, SKBR3, RL95.2, OVCAR3) (human, UniProt Q7Z7D3 25-282); test: cell-based or functional assay
T3 sequence (looked up): T2 sequence

[7] = target: T3, native Ovr110 protein on tumor cells …; test: flow cytometry; purified MAb; SKBR3 cells
[8] = target: T1, recombinant Ovr110-hFc encoded by …; test: competition ELISA; row = unlabeled blocking MAb; competitor = biotinylated detecting MAb Q27.4
[9] = target: T3, native Ovr110 protein on tumor cells …; test: flow cytometry; purified MAb; ZR-75-1 cells
[10] = target: T1, recombinant Ovr110-hFc encoded by …; test: competition ELISA; row = unlabeled blocking MAb; competitor = biotinylated detecting MAb Q11.12.3
[11] = target: T2, Ovr110 (amino acids 1-282; Ovr110 …); test: flow cytometry; purified MAb; Ovr110-transfected 293F cells
[12] = target: T3, native Ovr110 protein on tumor cells …; test: flow cytometry; hybridoma supernatant; SKBR3 cells
[13] = target: T1, recombinant Ovr110-hFc encoded by …; test: competition ELISA; row = unlabeled blocking MAb; competitor = biotinylated detecting MAb Q19.6
[14] = target: T3, native Ovr110 protein on tumor cells …; test: cell-based or functional assay; remark: listed apart in the source
[15] = target: T1, recombinant Ovr110-hFc encoded by …; test: competition ELISA; row = unlabeled blocking MAb; competitor = biotinylated detecting MAb Q3.1
[16] = target: T3, native Ovr110 protein on tumor cells …; test: flow cytometry titration of fluorescein-labeled MAb on ZR75-1 cells; one-site fit
[17] = target: T1, recombinant Ovr110-hFc encoded by …; test: competition ELISA; row = unlabeled blocking MAb; competitor = biotinylated detecting MAb Q23.6
[18] = target: T1, recombinant Ovr110-hFc encoded by …; test: competition ELISA; row = unlabeled blocking MAb; competitor = biotinylated detecting MAb Q12.2

transferrin receptor (TfnR, CD71) on cells, sequence (P02786 whole entry): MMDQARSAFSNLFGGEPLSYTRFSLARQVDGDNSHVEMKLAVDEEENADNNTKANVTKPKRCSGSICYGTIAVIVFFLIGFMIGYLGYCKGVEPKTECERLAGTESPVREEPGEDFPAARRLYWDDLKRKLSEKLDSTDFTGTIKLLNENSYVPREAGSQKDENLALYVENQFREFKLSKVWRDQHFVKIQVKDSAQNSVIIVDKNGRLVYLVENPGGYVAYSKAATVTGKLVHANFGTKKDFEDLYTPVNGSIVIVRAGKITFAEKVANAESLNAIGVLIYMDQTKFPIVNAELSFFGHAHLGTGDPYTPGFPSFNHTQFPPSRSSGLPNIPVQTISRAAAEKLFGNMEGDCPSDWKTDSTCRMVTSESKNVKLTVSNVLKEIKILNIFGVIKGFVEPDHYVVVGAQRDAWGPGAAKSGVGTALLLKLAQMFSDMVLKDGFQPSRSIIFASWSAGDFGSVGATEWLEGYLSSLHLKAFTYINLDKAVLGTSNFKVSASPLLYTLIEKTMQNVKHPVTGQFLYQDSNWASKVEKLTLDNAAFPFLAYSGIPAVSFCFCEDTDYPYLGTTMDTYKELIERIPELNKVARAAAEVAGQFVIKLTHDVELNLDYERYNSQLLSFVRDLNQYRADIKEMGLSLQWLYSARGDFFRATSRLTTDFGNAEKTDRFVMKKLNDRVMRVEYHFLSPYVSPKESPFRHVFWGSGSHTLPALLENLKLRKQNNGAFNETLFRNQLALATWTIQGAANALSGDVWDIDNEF

- Percentage growth compared to wells with media alone; HCT116; MAb 2.0 ug/mL with 1.0 ug/mL mAb-ZAP [1]: 24.9%
- Percentage growth compared to wells with media alone; SKBR3; MAb 0.4 ug/mL with 1.0 ug/mL mAb-ZAP [1]: 18.4%
- Percentage growth compared to wells with media alone; SKBR3; MAb 2.0 ug/mL with 1.0 ug/mL mAb-ZAP [1]: 44.6%
- Percentage growth compared to wells with media alone; ZR-75-1; MAb 0.4 ug/mL with 1.0 ug/mL mAb-ZAP [1]: 35%
- Percentage growth compared to wells with media alone; ZR-75-1; MAb 2.0 ug/mL with 1.0 ug/mL mAb-ZAP [1]: 49.3%
Molecule: anti-TfnR MAb 5E9 (ATCC) (antibody)

- signal/noise ratio [2]: 1.2
- signal/noise ratio [3]: 11.8
- signal/noise ratio [4]: 6.7
- % Cells Positive [5]: 91.8%
- Mean Fluorescence Intensity (MFI) [5]: 6.09
- Percentage growth compared to wells with media alone; ZR-75-1; MAb 0.4 ug/mL with 1.0 ug/mL mAb-ZAP [6]: 60.6%
- Percentage growth compared to wells with media alone; ZR-75-1; MAb 2.0 ug/mL with 1.0 ug/mL mAb-ZAP [6]: 69.5%
- % Cells Positive [7]: 94.8%
- MFI [7]: 3.9
- signal/noise ratio [8]: 1
- % Cells Positive [9]: 93.3%
- MFI [9]: 2.92
- signal/noise ratio [10]: 5.5
- % Cells Positive [11]: 95.2%
- MFI [11]: 5.48
- % Cells Positive [12]: 87.7%
- Mean Fluorescence Intensity (MFI) [12]: 1.48
- signal/noise ratio [13]: 6.5
- Percentage growth compared to wells with media alone; SKBR3; MAb 0.4 ug/mL with 1.0 ug/mL mAb-ZAP [14]: 68.9%
- Percentage growth compared to wells with media alone; SKBR3; MAb 2.0 ug/mL with 1.0 ug/mL mAb-ZAP [14]: 73.6%
- signal/noise ratio [15]: 1.4
- Kd [16]: 4.76 nM
- signal/noise ratio [17]: 1
- signal/noise ratio [18]: 3.1
B1: Ovr110.Q27 (antibody, IgG1, V domains shown)
VH: QVQPQQSGAELARPGASVKLSCKASGYTFTTYWMQWVKQRPGQGLEWIGAIYPGDGDTRYTQKFKGKATLTADKSSSTAYMQLSSLASEDSAVYYCAINWGYAMDYWGQGTSVTVSS
VL: DIVLTQSHKIMSTSVGDRVSITCKASQDVRTAVAWYQQKPGQSPKLLIKSASYRYTGVPDRFSGSGSGTDFTFTISSVQAEDLAVYYCQQHYSNPTFGGGTKLEIKR
notes: Mouse hybridoma MAb; also called Q27.4; Q27.2

More lines, now with the values behind:

B2: Ovr110.Q19 (antibody, IgG1, V domains shown)
VH: DVLLQESGPGLVKASQSLSLTCSVTGYSITSGYFWNWIRQFPGNKLEWMGYISYDGGNSYNPSLKNRISITRDTSKNQFFLRMKSVTAEDTATYYCARKALWLRFDYWGQGTTLTVSS
VL: EIVLTQSPAIMSVYLGEKVTMTCSASLSVSYMHWYQQKSSTSPKLWIYDTSKVASGVPGRFSGSGSGNSYSLTISSMEAEDVATYYCFQGSGYPFTFGSGTKLEIKR
notes: Mouse hybridoma MAb; also called Q19.6; Ovr110.Q19.6
- signal/noise ratio [2]: 1.2
- signal/noise ratio [3]: 11.7
- signal/noise ratio [4]: 6.6
- % Cells Positive [5]: 95.7%
- Mean Fluorescence Intensity (MFI) [5]: 24.5
- Percentage growth compared to wells with media alone; ZR-75-1; MAb 0.4 ug/mL with 1.0 ug/mL mAb-ZAP [6]: 28.1%
- Percentage growth compared to wells with media alone; ZR-75-1; MAb 2.0 ug/mL with 1.0 ug/mL mAb-ZAP [6]: 46.5%
- % Cells Positive [7]: 95.2%
- MFI [7]: 4.64
- signal/noise ratio [8]: 4.7
- % Cells Positive [9]: 95.6%
- MFI [9]: 4.11
- signal/noise ratio [10]: 1
- % Cells Positive [11]: 91.9%
- MFI [11]: 5.25
- % Cells Positive [12]: 98.9%
- Mean Fluorescence Intensity (MFI) [12]: 10.4
- signal/noise ratio [13]: 1
- Percentage growth compared to wells with media alone; SKBR3; MAb 0.4 ug/mL with 1.0 ug/mL mAb-ZAP [14]: 49.8%
- Percentage growth compared to wells with media alone; SKBR3; MAb 2.0 ug/mL with 1.0 ug/mL mAb-ZAP [14]: 25%
- signal/noise ratio [15]: 1.3
- Kd [16]: 0.53 nM
- signal/noise ratio [17]: 4.8
- signal/noise ratio [18]: 1.1

B3: Ovr110.Q11 (antibody, V domains shown)
VH: B2 VH with L3Q, A14P, N36S, Y51F, G57T, M83L, K84N, A88K, A100L
VL: B2 VL with I2N, V13A, Y14S, L15P, L27S, V53L
notes: Mouse hybridoma MAb; also called Q11.12.3; Ovr110.Q11.12.3
- signal/noise ratio [2]: 1.2
- signal/noise ratio [3]: 11.7
- signal/noise ratio [4]: 6.4
- % Cells Positive [5]: 95.7%
- Mean Fluorescence Intensity (MFI) [5]: 26
- % Cells Positive [7]: 98.4%
- MFI [7]: 5.95
- signal/noise ratio [8]: 4.7
- % Cells Positive [9]: 96.4%
- MFI [9]: 4.68
- signal/noise ratio [10]: 1
- % Cells Positive [11]: 93.8%
- MFI [11]: 5.47
- % Cells Positive [12]: 98.7%
- Mean Fluorescence Intensity (MFI) [12]: 9.71
- signal/noise ratio [13]: 1
- signal/noise ratio [15]: 1.3
- Kd [16]: 0.74 nM
- signal/noise ratio [17]: 4.5
- signal/noise ratio [18]: 1

B4: Ovr110.Q23 (antibody, IgG1, V domains shown)
VH: QVQLQQSGAELMKPGASVKISCKATGYTFSSYWIEWVKQRPGHGLEWIGEILPGSGITKYNEKFKTKATFTADTSSNTAYMQLSSLTSEDSAVYYCARYYFGSVNFYFDCWGQGTTLTVSS
VL: QAVVTQESALTTSPGETVTLTCRSSTGAVTTSNYANWVQEKPDHLFTGLIGGTDNRPPGVPARFSGSLIGDKAALTITGTQTEDEAIYFCALWYSNHWVFGGGTKLTVLG
notes: Mouse hybridoma MAb; also called Q23.6
- signal/noise ratio [2]: 1.2
- signal/noise ratio [3]: 2.9
- signal/noise ratio [4]: 6.7
- % Cells Positive [5]: 94.7%
- Mean Fluorescence Intensity (MFI) [5]: 17.9
- Percentage growth compared to wells with media alone; ZR-75-1; MAb 0.4 ug/mL with 1.0 ug/mL mAb-ZAP [6]: 37.5%
- Percentage growth compared to wells with media alone; ZR-75-1; MAb 2.0 ug/mL with 1.0 ug/mL mAb-ZAP [6]: 45.5%
- % Cells Positive [7]: 93.9%
- MFI [7]: 3.85
- signal/noise ratio [8]: 2.2
- % Cells Positive [9]: 92.7%
- MFI [9]: 3.25
- signal/noise ratio [10]: 5.2
- % Cells Positive [11]: 92.6%
- MFI [11]: 4.98
- % Cells Positive [12]: 97.1%
- Mean Fluorescence Intensity (MFI) [12]: 4.35
- signal/noise ratio [13]: 6
- Percentage growth compared to wells with media alone; SKBR3; MAb 0.4 ug/mL with 1.0 ug/mL mAb-ZAP [14]: 68.9%
- Percentage growth compared to wells with media alone; SKBR3; MAb 2.0 ug/mL with 1.0 ug/mL mAb-ZAP [14]: 73.6%
- signal/noise ratio [15]: 1.4
- Kd [16]: 5.66 nM
- signal/noise ratio [17]: 1
- signal/noise ratio [18]: 2.8

B5: Ovr110.Q12 (antibody, IgG1, V domains shown)
VH: QVQLQQPGAELVKPGATVKLSCKTSGYTFTSYWMHWVKQRPGQGLEWIGEIDPSDSYTNYNQKFKGKATLTVDTSSTTAYMQLSSLTSEDSAVYYCAREYGNNDAMDYWGQGTSVTVSS
VL: QIVLTQSPAIMSASPGEKVTMTCSASSGISYMHWYQQKPGTTPKRWIYDASKLASGVPSRFSGSGSGTSYSLTISSMEAEDAATYYCHQRRSYPFTFGSGTKLEIKR
notes: Mouse hybridoma MAb; also called Q12.2; Ovr110.Q12.2
- signal/noise ratio [2]: 1.2
- signal/noise ratio [3]: 11.6
- signal/noise ratio [4]: 6.7
- % Cells Positive [5]: 96.6%
- Mean Fluorescence Intensity (MFI) [5]: 31.8
- % Cells Positive [7]: 95.3%
- MFI [7]: 4.86
- signal/noise ratio [8]: 4.3
- % Cells Positive [9]: 94.1%
- MFI [9]: 3.76
- signal/noise ratio [10]: 1.2
- % Cells Positive [11]: 94.3%
- MFI [11]: 5.25
- % Cells Positive [12]: 98.8%
- Mean Fluorescence Intensity (MFI) [12]: 12
- signal/noise ratio [13]: 1.1
- signal/noise ratio [15]: 1.4
- Kd [16]: 0.64 nM
- signal/noise ratio [17]: 3.6
- signal/noise ratio [18]: 1
